Measured values as given in PMC12700824.
Substitutions are numbered along the chain they refer to. Names and notes keep the numbering of the source.

How the values were obtained:
[1] = target: FAM118B-L32R, full length, tagged with mEGFP or with mCherry, Q9BPY3; assay: FCCS (fluorescence cross-correlation spectroscopy) in living U2OS cells; conditions: chain shown with the change; mEGFP-F122R (green label) coexpressed with mCherry-L32R (red label); n = 15 cells per condition; read off a plot
[2] = target: FAM118B-F122R, full length, tagged with mEGFP or with mCherry, Q9BPY3; assay: as above; conditions: chain shown with the change, n = 15 cells per condition, read off a plot

B1: mEGFP–FAM118B WT (full-length human FAM118B fused at its N terminus to mEGFP), Q9BPY3 binder:F122R; target:L32R (protein)
chain: MASTGSQASDIDEIFGFFNDGEPPTKKPRKLLPSLKTKKPRELVLVIGTGISAAVAPQVPALKSWKGLIQALLDAAIDFDLLEDEESKKFQKCLHEDKNLVHVAHDLIQKLSPRTSNVRSTRFKDCLYEVFDDLESKMEDSGKQLLQSVLHLMENGALVLTTNFDNLLELYAADQGKQLESLDLTDEKKVLEWAQEKRKLSVLHIHGVYTNPSGIVLHPAGYQNVLRNTEVMREIQKLYENKSFLFLGCGWTVDDTTFQALFLEAVKHKSDLEHFMLVRRGDVDEFKKLRENMLDKGIKVISYGDDYADLPEYFKRLTCEISTRGTSAGMVREGQLNGSSAAHSEIRGCST
response [1]: 88%

B2: mEGFP–FAM118B WT (full-length human FAM118B fused at its N terminus to mEGFP), Q9BPY3 binder:L32R; target:F122R (protein)
chain: B1 chain with L32R, R122F
response ([2]; mEGFP-L32R (green label) coexpressed with mCherry-F122R (red label)): 90%

B3: mEGFP–FAM118B WT (full-length human FAM118B fused at its N terminus to mEGFP), Q9BPY3 binder:F122R; target:F122R (protein)
chain: B1 chain
response ([2]; mEGFP-F122R (green label) coexpressed with mCherry-F122R (red label)): 6%
